What was measured:
[1] = system: H9c2 cardiac myoblasts; test: Measurement of O2 consumption (Oroboros Oxygraph-2k) in cardiac myoblasts; format: cell-based
Text: After ethical committee approval, all patients in this study gave written consent for sample collection and molecular analysis prior to inclusion. Patients were carefully selected by physicians from the Department of Cardiology, Toulouse University Hospital, prior to coronary by-pass surgery. Bioinformatics. Microarray expression data from human heart samples were downloaded from the GEO repository (GSE1145). This series consisted of 107 myocardial samples collected from patients undergoing cardiac transplantation whose failure arises from different etiologies (e.g. idiopathic dilated cardiomyopathy, ischemic cardiomyopathy, valvular cardiomyopathy, and hypertrophic cardiomyopathy) and from “normal” organ donors whose hearts cannot be used for transplants. Arrays were intensity normalized and hierarchical clustering (average group linkage, Pearson correlation, threshold r=0.8) was applied to identify groups of co-expressed genes. ApoO expression levels were plotted for the 107 human hearts tested and used to define relevant molecular pathways using both Toppgene and Ingenuity Pathway Analysis (Ingenuity systems, Redwood City, Calif., USA). ApoO subcellular localization was predicted using Mitopred, mitoprot and YLoc. Animals: All animal Studies followed the INSERM Institute Animal Facility guidelines and were approved by the animal care committees of the INSERM I2MC UMR 1048. All animal procedures were performed according to the guidelines of the French Ministry of Agriculture. Animals were housed at the Toulouse I2MC animal facility in a room lit 12 h per day (6 AM-6 PM) at an ambient temperature of 22+/−1° C. Construction of ApoO Expression Vectors To overexpress human ApoO (pTT-ApoO), the ApoO coding sequence was amplified using primers hApoO5BamPTT (SEQ ID NO: 2) and hApoO3BamPTT (SEQ ID NO: 3) and cloned into the BamH1 site of pTT expression vector. pSNAP-ApoO was generated by PCR amplification of pTT-ApoO using primers SnapApoEcorV-F (SEQ ID NO: 4) and SnapApoEcorV-R (SEQ ID NO: 5) and cloned into the EcoRV site of pSNAP-Tag® (Ozyme, Saint-Quentin-en-Yvelines, France). pGEX2T-ApoO was constructed by PCR amplification of pTT-ApoO using hApoOpGEX1FBam (SEQ ID NO: 6) and hApoOpGEX1RSma (SEQ ID NO: 7) and cloned into the Bam HI/Sma I site of pGEX2T (Promega, Charbonnières-les-Bains). All primers used in this work were synthesized by Eurogentec France (Angers). All restriction enzymes used were from New England Biolabs (Ozyme, Saint-Quentin-en-Yvelines). All ApoO sequences within the expression vectors were verified by DNA double strand sequencing using ABI PRISM®BigDye™ Terminator version 3.1 Ready reaction cycle sequencing kit (Life Technologies SAS, Villebon sur Yvette) and loaded on an ABI 3130XL DNA sequencing instrument (Life Technologies SAS, Villebon sur Yvette). Cell Culture and Tranfection of H9C2 Cardic Myoblasts H9c2 were obtained from the European Collection of Cell Cultures (Salisbury, England). H9c2 cells were cultured in Dulbecco's modified Eagle medium (Life Technologies SAS, Villebon sur Yvette) adjusted to contain 1.5 g/liter sodium bicarbonate and supplemented with antibiotic-antimycotic solution (Life Technologies SAS, Villebon sur Yvette) and 10% fetal bovine serum (FBS, AbCys s.a., Paris). Cells were plated on 10-cm diameter tissue culture dish and grown in a 5% CO2 incubator at 37° C. with saturating humidity with medium changes every 2 days. […]

[2] = system: U87 cells; test: Caspase-3 activity in U87 glioblastoma transfectants; format: cell-based, human; conditions: U87 pTT-ApoO vs control pTT, 100 μM palmitate overnight (FIG. 13)
Method: U87 were obtained from the European Collection of Cell Cultures (Salisbury, England). p y, g) U87 cells were cultured in Dulbecco's modified Eagle medium (Life Technologies SAS, Villebon sur Yvette) adjusted to contain 1.5 g/liter sodium bicarbonate and supplemented with antibiotic-antimycotic solution (Life Technologies SAS, Villebon sur Yvette) and 10% fetal bovine serum (FBS, AbCys s.a., Paris). Cells were plated on 10-cm diameter tissue culture dish and grown in a 5% CO2 incubator at 37° C. with saturating humidity with medium changes every 2 days. U87 glioblastomas were stably transfected by electroporation and pools of transfectants were selected as previously described (Smih et al 2002). Western Blot Analysis Cultured cells were resuspended in RIPA buffer (0.15 M sodium chloride, 1% NP-40, 0.5% sodium deoxycholate, 0.1% SDS, 50 mM Tris, pH 8) in the presence of a mix protease inhibitors. The lysate was sonicated 6 s and centrifuged at 6,500 g for 10 min. […] Protein immune-band densitometry was quantified with the ImageJ software. […] Caspase-3 activities were measured using the Caspase-3 Substrate IV Fluorogenic substate (VWR, Strasbourg) and a Victor™ X5 2030 multilabel reader (Perkin Elmer, Courtaboeuf). […]
The inventors measured and compared the Caspase-3 activity in • control U87 cells (pTT); and • U87 transfectants cells overexpressing ApoO (pTT-ApoO).

[3] = system: Bax; test: Bax mRNA levels in cardiac myoblasts; format: cell-based; conditions: ApoO cells vs control (FIG. 9f)
Text: After ethical committee approval, all patients in this study gave written consent for sample collection and molecular analysis prior to inclusion. Patients were carefully selected by physicians from the Department of Cardiology, Toulouse University Hospital, prior to coronary by-pass surgery. Bioinformatics. Microarray expression data from human heart samples were downloaded from the GEO repository (GSE1145). This series consisted of 107 myocardial samples collected from patients undergoing cardiac transplantation whose failure arises from different etiologies (e.g. idiopathic dilated cardiomyopathy, ischemic cardiomyopathy, valvular cardiomyopathy, and hypertrophic cardiomyopathy) and from “normal” organ donors whose hearts cannot be used for transplants. Arrays were intensity normalized and hierarchical clustering (average group linkage, Pearson correlation, threshold r=0.8) was applied to identify groups of co-expressed genes. […] All ApoO sequences within the expression vectors were verified by DNA double strand sequencing using ABI PRISM®BigDye™ Terminator version 3.1 Ready reaction cycle sequencing kit (Life Technologies SAS, Villebon sur Yvette) and loaded on an ABI 3130XL DNA sequencing instrument (Life Technologies SAS, Villebon sur Yvette). […]

[4] = system: MPTP; test: Mitochondrial calcein-cobalt assay of MPTP opening; format: cell-based; conditions: cultured cardiac myoblasts
[5] = system: Caspase-3; test: Caspase-3 enzymatic activity in H9c2 cardiac myoblasts; format: cell-based
Text: After ethical committee approval, all patients in this study gave written consent for sample collection and molecular analysis prior to inclusion. Patients were carefully selected by physicians from the Department of Cardiology, Toulouse University Hospital, prior to coronary by-pass surgery. Bioinformatics. Microarray expression data from human heart samples were downloaded from the GEO repository (GSE1145). This series consisted of 107 myocardial samples collected from patients undergoing cardiac transplantation whose failure arises from different etiologies (e.g. idiopathic dilated cardiomyopathy, ischemic cardiomyopathy, valvular cardiomyopathy, and hypertrophic cardiomyopathy) and from “normal” organ donors whose hearts cannot be used for transplants. Arrays were intensity normalized and hierarchical clustering (average group linkage, Pearson correlation, threshold r=0.8) was applied to identify groups of co-expressed genes. ApoO expression levels were plotted for the 107 human hearts tested and used to define relevant molecular pathways using both Toppgene and Ingenuity Pathway Analysis (Ingenuity systems, Redwood City, Calif., USA). ApoO subcellular localization was predicted using Mitopred, mitoprot and YLoc. Animals: All animal Studies followed the INSERM Institute Animal Facility guidelines and were approved by the animal care committees of the INSERM I2MC UMR 1048. All animal procedures were performed according to the guidelines of the French Ministry of Agriculture. Animals were housed at the Toulouse I2MC animal facility in a room lit 12 h per day (6 AM-6 PM) at an ambient temperature of 22+/−1° C. […] All ApoO sequences within the expression vectors were verified by DNA double strand sequencing using ABI PRISM®BigDye™ Terminator version 3.1 Ready reaction cycle sequencing kit (Life Technologies SAS, Villebon sur Yvette) and loaded on an ABI 3130XL DNA sequencing instrument (Life Technologies SAS, Villebon sur Yvette). […]

activity of Caspase-3 ([5]; ApoO cells vs control (FIG. 9g)): increase | apoptotic effect of increasing doses of palmitate (Caspase-3 activity) ([5]; ApoO overexpressing cells vs control (FIG. 9h)): dramatically amplified
B1: ApoO: 198-amino acid apolipoprotein, SEQ ID NO: 1; tested by overexpression from expression vectors or transgene (protein, listed as Homo sapiens)
chain: MFKVIQRSVGPASLSLLTFKVYAAPKKDSPPKNSVKVDELSLYSVPEGQSKYVEEARSQLEESISQLRHYCEPYTTWCQETYSQTKPKMQSLVQWGLDSYDYLQNAPPGFFPRLGVIGFAGLIGLLLARGSKIKKLVYPPGFMGLAASLYYPQQAIVFAQVSGERLYDWGLRGYIVIEDLWKENFQKPGNVKNSPGTK
basal oxygen consumption ([1]; ApoO cells vs control cardiac myoblasts (FIG. 4A)): two-fold increase | respiration coupling (RC) ([1]; ApoO cells vs control, CCCP / oligomycin oxygen consumption (FIG. 4C)): decreases | Caspase-3 activity [2]: significant increase | expression of Bax [3]: increase | kinetics of MPTP opening [4]: alters the kinetics of MPTP opening

— patent US10272135B2, “Apolipoprotein O and fragments thereof for inducing apoptosis in a cancerous cell” (INSERM (INSTITUT NATIONAL DE LA SANTÉ ET DE LA RECHERCHE …, priority 2014, dated 2019)
